The labels stand for the following.
B1: Hairpin Ribozyme (parent)
chain: GUCCUCUUUCACGUGCGCGUGAAAGAGAGAAGUGAACCAGAGAAACACACGUUGUGGUAUAUUACCUGGUA

Variants of B1 are the subject of this data set. The experiment in a line: self-cleavage, relative activity (ratio to wild type); higher = more cleavage; co-transcriptional.
On to G1U C16U, for which the self-cleavage came to 0.0937.
Consider G25A G51A, for which the self-cleavage is 0.586.
On to G15A U62G, for which the self-cleavage worked out at 0.109.
For the variant C10G G32A, the self-cleavage turned out to be 0.163.
Consider U63C, for which the self-cleavage stood at 0.186.
U33G A59G: the self-cleavage was 0.204.
For U58G U60C, the self-cleavage is 0.731.
The result for U33G A45U reads 0.0465.
In the case of A24G C66U, the self-cleavage came out at 0.403.
The result for C3G G34U reads 1.01; that for G27C U52G, 0.163; that for G42U A71C, 0.6.
For U67A A71C, the self-cleavage came to 0.381.
Turning to C18U A64C, the self-cleavage stood at 0.216.
On to A11C C37U, for which the self-cleavage was found to be 0.494.
For U52A A64C, the self-cleavage was found to be 0.253.
For G29C A36C, the self-cleavage is 0.179.
For the variant G29U C65G, the self-cleavage was determined as 0.0526.
With U33G A49U, the self-cleavage is 0.218.
Take G29U A35C: the self-cleavage was 0.11.
With G29U A35G, the self-cleavage amounted to 0.137.
The result for A61G reads 0.183; that for A28U A36G, 0.656.
The result for G56C A71U reads 0.119.
The figure for A22G A45U is 0.268; for A35C C37U it is 0.486; for A43U C50U it is 0.116.
Consider A23U A36U, for which the self-cleavage is 0.491.
Turning to C12U A61C, the self-cleavage was found to be 0.24.
Regarding U20C A47U, the self-cleavage is 0.161.
Consider U2A C38U, for which the self-cleavage was 0.14.
As to A30G U55C, the self-cleavage was 0.0826.
Consider C37G G54U, for which the self-cleavage was 0.255.
The result for G32U A39G reads 0.0986; that for C12A G51A, 0.898; that for C3A A41G, 0.7.
The figure for A31C C66A is 0.146; for A11U A22G it is 0.755.
The figure for U8C A49G is 0.347; for A26C U53A it is 0.521; for G21C U70G it is 0.658.
As for A11C A47C, the self-cleavage was 0.267.
A11C A47G: the self-cleavage is 0.0993.
For A41U U67G, the self-cleavage was determined as 0.534.
For A31C A59C, the self-cleavage worked out at 0.103.
The figure for C16U G29U is 0.0547.
For the variant G17C A24U, the self-cleavage is 0.73.
The figure for C3U G21C is 0.32; for A26C G42U it is 0.307; for C18G C46A it is 0.0797.
With G17C G57A, the self-cleavage was 0.148.
G17A U70C: the self-cleavage was found to be 0.937.
As for A47C U55C, the self-cleavage came out at 0.233.
For G21A A71U, the self-cleavage amounted to 0.611.
In the case of A44U A71G, the self-cleavage turned out to be 0.293.
As to G19A G32A, the self-cleavage came out at 0.131.
Consider U9C C65A, for which the self-cleavage was 0.945.
On to G54U G68A, for which the self-cleavage was 0.22.
The figure for G13C A44U is 0.137; for A41C A43C it is 0.0734; for U5G U58C it is 0.25.
On to G13A A59U, for which the self-cleavage was determined as 0.241.
Turning to G69A, the self-cleavage is 0.407.
Turning to G27C C38U, the self-cleavage is 0.131.
The figure for A36C U60A is 0.439; for A22C G34C it is 1.22.
In the case of U14A G54U, the self-cleavage was found to be 0.471.
The figure for G32C C66G is 0.114.
C37G C48A: the self-cleavage amounted to 0.192.
On to G21U U60G, for which the self-cleavage worked out at 0.48.
In the case of C3U A26C, the self-cleavage turned out to be 0.314.
As for C3G G17C, the self-cleavage turned out to be 0.198.
A31C G32A: the self-cleavage amounted to 0.173.
As for A64G A71G, the self-cleavage was found to be 0.554.
The result for A64G A71C reads 0.76; that for C37A C66U, 0.179; that for U2C G15U, 0.117.
The result for A30C G51U reads 0.178; that for G32U A45U, 0.3.
As to A30G U53C, the self-cleavage came out at 0.288.
For the variant G56C U63C, the self-cleavage was determined as 0.17.
G34U A36C: the self-cleavage is 1.02.
On to A28G U58C, for which the self-cleavage turned out to be 0.791.
For G27A C38A, the self-cleavage was 0.127.
On to G27U A35U, for which the self-cleavage came to 0.203.
The result for U14G A36C reads 0.729; that for U14A G42U, 0.308.
Take C38G U53C: the self-cleavage is 0.196.
A36C G40C: the self-cleavage worked out at 0.135.
With C18A G25C, the self-cleavage was 0.58.
In the case of A36U A71C, the self-cleavage was 0.959.
With A11G A26U, the self-cleavage was 0.645.
For C48G U63A, the self-cleavage stood at 0.181.
On to U8A A44U, for which the self-cleavage was 0.0969.
As to G17U U62A, the self-cleavage is 0.198.
The figure for A36C U52C is 0.556.
In the case of C6U G17A, the self-cleavage was determined as 0.917.
As to C12U G69U, the self-cleavage was found to be 0.153.
On to C12U G69A, for which the self-cleavage was determined as 0.406.
For U2A C50A, the self-cleavage was determined as 0.219.
On to A44G C66A, for which the self-cleavage was 0.022.
The result for U14C A45C reads 0.206; that for C12A A59C, 0.149.
Consider A41C G54C, for which the self-cleavage is 0.676.
With C16G G21C, the self-cleavage is 0.285.
For the variant C6G G51C, the self-cleavage came out at 0.458.
Turning to A24U A36U, the self-cleavage was determined as 0.41.
Consider A45C U58G, for which the self-cleavage is 0.3.
As to U67G A71G, the self-cleavage came to 0.208.
Turning to U7C C46A, the self-cleavage came to 0.224.
As for U2C U14G, the self-cleavage was determined as 0.075.
The result for G19U G40A reads 0.325; that for U5C G68U, 0.127; that for A43G C46A, 0.153.
The figure for C6G A35G is 0.414; for G29C A41U it is 0.103; for U9G A59G it is 0.241.
Turning to G32A C37A, the self-cleavage amounted to 0.115.
On to C48A A71G, for which the self-cleavage turned out to be 0.19.
With A24G A59G, the self-cleavage was 0.272.
Regarding C4U A39C, the self-cleavage worked out at 0.251.
On to C16U A41U, for which the self-cleavage came out at 1.4.
In the case of U55A G69U, the self-cleavage came to 0.146.
For the variant A59C G68U, the self-cleavage worked out at 0.138.
Consider A59C G68A, for which the self-cleavage stood at 0.124.
In the case of G21U A30C, the self-cleavage was determined as 0.232.
Regarding G15C A45G, the self-cleavage turned out to be 0.194.
The result for C46G C50A reads 0.0593.
Regarding A39C G42U, the self-cleavage is 0.11.
For the variant A41G A44G, the self-cleavage is 0.249.
The result for U8C A44U reads 0.142; that for A26U U70C, 0.721.
The figure for C37U C48A is 0.12.
The result for G1A G40C reads 0.167; that for U8A A35G, 0.483; that for C12A G21U, 0.752.
On to G19C G56A, for which the self-cleavage was 0.101.
A23C U52G: the self-cleavage was found to be 0.489.
On to U7G G51C, for which the self-cleavage is 0.908.
C50U C66G: the self-cleavage was determined as 0.166.
On to A24G C38A, for which the self-cleavage was found to be 0.125.
For the variant G17C C46A, the self-cleavage came out at 0.113.
For A22G A71C, the self-cleavage is 1.28.
With G1A U70A, the self-cleavage is 0.198.
As to G1A U60A, the self-cleavage is 0.188.
G15U U63C: the self-cleavage turned out to be 0.14.
In the case of A24U U55G, the self-cleavage is 0.242.
Take U5C A61U: the self-cleavage was determined as 0.105.
For the variant G29C G68C, the self-cleavage was found to be 0.124.
For U20G A26C, the self-cleavage was determined as 0.483.
The figure for G17U U60G is 0.343; for U33G G56C it is 0.0919.
A30C C37U: the self-cleavage is 0.0704.
C10U G68U: the self-cleavage worked out at 0.189.
As for U7A G42A, the self-cleavage was 0.166.
The figure for C12U A35U is 0.743; for G29A U63A it is 0.124; for A11C G19C it is 0.589.
On to C37A A49C, for which the self-cleavage amounted to 0.0162.
With C10A A64C, the self-cleavage turned out to be 0.185.
The result for G25U A31G reads 0.385.
In the case of C4A U58C, the self-cleavage came to 0.293.
As to G19A U70C, the self-cleavage stood at 0.922.
G40C A71U: the self-cleavage is 0.09.
On to G27A C46U, for which the self-cleavage was determined as 0.127.
As for A39C C66G, the self-cleavage is 0.0809.
Turning to G32U G56A, the self-cleavage came out at 0.117.

(Values after the RNAGym collection of RNA variant scans (doi:10.7554/elife.80360).)
